From patent US20230192894A1

Molecular target: canine FcεRIα on the surface of canine mast cell line HMRC cells (canine)
Assay: flow cytometry, FITC-labelled control on canine mast cell line HMRC

median fluorescence intensity: 1720
Substance: mouse IgG2b isotype control labeled with FITC (antibody)
